Measured values as given in patent US20160130329A1 (UNIVERSITY OF CHICAGO, published 2016).
Where a chain is given by its changes, count along the chain named. Each block holds one binder with its values, some of them ahead of it. Where no end group is shown, it is not given here. [ ]: non-standard residue; d: D form. Lys(Me3) = C[N+](C)(C)CCCC[C@H](N)C(=O)O

Experiments:
[1] = molecular target: T1, H3K4me3 peptide (also: biotinylated, site not given here); assay: peptide IP assay (antibody on beads, flow cytometry)
T1 peptide: ART[Lys(Me3)]QTARKSTGGYCD

[2] = molecular target: T2, H3K56me3 peptide (K(me3) at H3 K56; K(biotin) near the C-terminus, as printed: LREIRRYQ-K(me3)-STELLIRGG-K(biotin)-D); assay: peptide IP assay (FIG. 8B)
T2 peptide: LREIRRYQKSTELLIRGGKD

[3] = molecular target: T3, H3K36me3 peptide (K(me3) at H3 K36; K(biotin) near the C-terminus, as printed: SAPATGGVK-K(me3)-PHRYRPGG-K(biotin)-D); assay: peptide IP assay (FIG. 8B)
T3 peptide: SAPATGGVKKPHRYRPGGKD

[4] = molecular target: T1, H3K4me3 peptide; assay: quantitative peptide IP assay, biotinylated Fab on streptavidin beads, flow cytometry
[5] = molecular target: T1, H3K4me3 peptide; assay: quantitative peptide IP assay
[6] = molecular target: T4, cross-linked chromatin from HEK293T cells; assay: cross-linked ChIP from HEK293T cells followed by qPCR
T4 construct: A protein-DNA complex

[7] = molecular target: T5, H4K20me3 peptide (trimethyl-lysine at K20 (histone H4 numbering); biotinylated through the GYCD tag); assay: peptide IP assay (antibody on beads, flow cytometry)
T5 peptide: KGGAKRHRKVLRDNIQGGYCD

[8] = molecular target: T1, H3K4me3 peptide; assay: as above
[9] = molecular target: T6, H3K27me3 peptide (trimethyl-lysine at K27 (histone H3 numbering); biotinylated through the GYCD tag); assay: phage ELISA [A]
T6 peptide: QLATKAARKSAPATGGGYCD

[10] = molecular target: T2, H3K56me3 peptide; assay: peptide IP assay (antibody on beads, flow cytometry)
[11] = molecular target: T3, H3K36me3 peptide; assay: as above
[12] = molecular target: T5, H4K20me3 peptide; assay: phage ELISA [A]
[13] = molecular target: T1, H3K4me3 peptide; assay: phage ELISA [A]

Kd [1]: 20 nM | binding result [2]: no binding | binding result [3]: no binding | Kd [4]: 16 nM | fold increase in affinity compared with the lead antibody (scFv 4-5) [5]: 360 fold
B1: 304M3-A (Fab, V domains shown)
VH: EVQLVETGGGVVQPGRSLRLSCTASGFTFRDYWMSWVRQAPGKGLEWVADINQDGSALYYVDAVKGRFTISRDNAKSSLYLQMNSLGAEDTAVYYCARDLIYGFGWHFDLWGRGTLVTVSS
VL: not shown
notes: Produced and characterized in the same manner as 309M3-A: biotinylated Fab with a biotinylation acceptor peptide at the C-terminus of the heavy chain; also called recombinant anti-H3K4me3 antibody; 304M3-A antibody

ChIP enrichment relative to pAb-056-050 (lot A93-0042) [6]: ~3 fold | binding result [7]: no binding (tested: 500 nM) | binding result [8]: no binding (tested: 500 nM) | binding result [9]: no binding (tested: 100 nM peptide) | binding result [10]: no binding (tested: 500 nM) | binding result [11]: no binding (tested: 500 nM)
B2: 309M3-A (Fab, V domains shown)
VH: B1 VH with Y32H, Q53G, G55S, S56I, A57L, L58E, L100F, I101H, Y102R, F104Y
VL: not shown
notes: also called recombinant anti-H3K9me3 antibody; 309M3-A antibody

binding result [9]: no binding (tested: 100 nM peptide) | binding result [12]: no binding (tested: 100 nM peptide) | binding result [13]: no binding (tested: 100 nM peptide)
B3: 9H2 (scFv)
scFv: EVQLVETGGGVVQPGRSLRLSCTASGFTFRDHWMSWVRQAPGKGLEWVADIDQEGRWGYYLDAVKGRFTISRDNAKSSLYLQMNSLGAEDTAVYYCARDFLVGFGWHFDLWGRGTLVTVSSSYVLTQPPSVSVAPGQTARITCGGTNIGDISVHWYQQRPGQAPLVVVYDDSDRPSGIPERFSGSNSGNTATLTISRVEAGDEADYYCQVWDDSINAYVFGTGTKVTVL
